In assay [1] the target is T1, Recombinant His-tagged HP1γ (human, UniProt Q13185 1-183).
T1 construct: HP1γ, human; the cDNA used encodes 183 amino acids; pCold I vector; also called His-HP1γ; His-tag HP1γ; source: E. coli DH5α (pCold I), isolated with TALON His-tag resin, dialysed
The assay is described as follows: pull-down; His-tagged HP1γ forms incubated with GST-KDM2A fragments in 300 mM NaCl, 50 mM Na-phosphate pH 7.0, 4 °C 1 h; collected on TALON resin (1% NP40 washes); SDS-PAGE. The conditions noted are these: both partners purified.

Assay [2] has as its target T2, Recombinant His-tagged HP1γ (CSD) (human, UniProt Q13185 110-183).
T2 construct: HP1γ, human, chromoshadow domain construct, amino acids 110-183; Limits 110-183 are those printed for the HP1γ (CSD) cDNA; the His-tag plasmids are described only as 'His-tag HP1γ and its mutants'; also called CSD of HP1γ; His-HP1γ mutant; source: E. coli DH5α (pCold I), isolated with TALON His-tag resin, dialysed
The assay is described as above. The note with it: both partners purified.

The text below walks through data of publication PMC6677663, “KDM2A-dependent reduction of rRNA transcription on glucose starvation requires HP1 in cells, including triple-negative breast cancer cells” (Oncotarget, 2019).

T1 sequence (Q13185 whole entry): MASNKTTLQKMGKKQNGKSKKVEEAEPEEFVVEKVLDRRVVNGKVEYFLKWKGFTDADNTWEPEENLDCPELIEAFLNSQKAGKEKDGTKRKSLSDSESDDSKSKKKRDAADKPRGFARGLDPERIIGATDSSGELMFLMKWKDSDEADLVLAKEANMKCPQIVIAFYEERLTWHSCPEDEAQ
T2 sequence (Q13185 110-183): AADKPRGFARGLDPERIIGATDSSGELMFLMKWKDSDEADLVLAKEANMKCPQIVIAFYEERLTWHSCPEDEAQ

B1: recombinant KDM2A fragment (amino acids 785–817) fused with GST (domain or fragment, UniProt Q9Y2K7 785-817, looked up)
chain: ELSEVEKAKIRGSYLTVTLQRPTKELHGTSIVP
notes: also called GST-KDM2A fragment; source: E. coli DH5α (pGEX-3X), isolated on glutathione-Sepharose, dialysed
B1: the binding result in assay [1] and in assay [2] was “binds” throughout.
